Reference: patent publication US20220195015A1 (published 2022)
Substitutions are numbered along the chain they refer to.

B1: C596 (antibody, V domains shown)
VH: QVQLVESGGGVVQPGRSLRLSCAASGITFSHYGMHWVRQAPGKGLEWVALISSDGSKKYYADSVKGRFTISRDNSKSTLYLQMNSLRAEDTAIYYCAKDLGYYYGPPYGPDYWGQGTLVTVSS
VL: DIQMTQSPSSLSASVGDRVTITCQASQDVSNSLNWYQQKPGKAPKLLIYDASNLETGVPSRFSGSGSGTDFSFTISSLQPEDIATYYCLQYDNFSMYTFGQGTKLEIK
B2: C593 (antibody, V domains shown)
VH: QVQLVQSGAEVKKPGASVKVSCKASGYTFTSYDINWVRQAPGQGLEWMGWMNPNSGNTDYAQKFQGRFTMTRNTSISTAYMELSSLRSEDTAVYYCASRRWDPLTFYYYMVVWGKGTTVTVSS
VL: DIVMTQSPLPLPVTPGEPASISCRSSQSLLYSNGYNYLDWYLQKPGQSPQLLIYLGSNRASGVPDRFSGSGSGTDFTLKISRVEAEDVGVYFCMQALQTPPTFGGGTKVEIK
B3: C059 (antibody, V domains shown)
VH: QVQLVQSGAEVKKPGASIKVSCKASGYTFTDYSMHWVRQAPGQGLEWMGWINPNSGGTKYAQKFQGWVTMTRDMSITTVYMELTRLRSDATAVFYCARGPLFHKLVYDSWTGYHDGFDIWGQGTMVTVSS
VL: QSALTQPASVSGSPGQSITISCTGTSSDVGGYNYVSWYQHYPGKAPKLMIYEVTHRPSGVSNRFSGSKSGNTASLTISGLQAEDEADYYCSSSTNSSTWVFGGGTKMTVL
B4: C057 (antibody, V domains shown)
VH: QVQLVQSGAEVKRPGASVKLSCKASGYIFTDYSIHWVRQAPGQGLEWMGWVNPNSGGGNSAQKFMDWVTMARDTSITTVYMELSRLRSDDTAVYYCARGPLFHKLVYDSWSGYHDGFDIWGQGTMVTVSS
VL: QSALTQPASVSGSPGQSITISCTGTSSDVGAYKFVSWYQQHPGKAPQLIIYEVSNRPSGVSNRFSGSKSGNTASLTISGLQAEDEADYYCSSYTNASTWVFGGGTELTVL
B5: C060 (antibody, V domains shown)
VH: EVQLVESGGGLVQPGGSQRLSCAASGFTVSSNYMSWIRQAPGKGLEWVSVIYSGGSAYYVDSVKGRFTISRDNSKNTLYLQMNSLRPEDTAVYYCARIANYMDVWGKGTTVTVSS
VL: EIVMTQSPATLSVSPGERATLSCRASQSVSSHLAWYQQKPGQAPRLLIYGASTRATGIPTRFSGSGSGTEFTLTISSLQSEDFAVYYCQQYNNWPPLTFGGGTKVEIK
B6: C089 (antibody, V domains shown)
VH: QVQLVESGGGVVQPGRSLRLSCAASGFTFRTYAMHWVRQAPGKGLEWVAVILSDGNNKYYADSVKGRFTISRDNSKNTLYLQMNSLRAEDTAIFYCAREQEANYYDISGYYHWGESLGYWGQGTLVTVSS
VL: DIQLTQSPSFLSASVGDRVTITCRASQGISSYLAWYQQKPGKAPKLLIYGASTLQSGVPSRFSGSGSGTEFTLTISSLQPEDFASYYCQKVNSHPPGLTFGGGTKVEIK
B7: C090 (antibody, V domains shown)
VH: B6 VH
VL: B6 VL with L46F, H94Y
B8: C062 (antibody, V domains shown)
VH: EVQLVESGGGLVKPGGSLRLTCAASGFTFSTYSMNWVRQAPGKGLEWVSSISSSSSYIYYADSVKGRFTISRDNAKNSLYLQMNSLRAEDTAVYYCARERGYYGGKTPPFLGGQGTLVTVSS
VL: NFMLTQPHSVSESPGKTVTISCTGSSGSIASNYVQWYQQRPGSAPTTVIYEDNQRPSGVPDRFSGSIDSSSNSASLTISGLKTEDEADYYCQSYDSSNYWVFGGGTKLTVL
B9: C085 (antibody, V domains shown)
VH: QVQLQESGPGLVKPSETLSLTCTVSGDSMSSYFWTWIRQPPGKGLECIGYFYPSGSTNYNPSLKSRVTISIDTSKNQFSLKLSSVTAADTAVYYCARLKQQLVGFGWFDPWGQGTLVTVSS
VL: QSVLTQPPSVSGAPGQRVTISCTGSSSNIGADYDVHWYQQFPGTAPKVLIYANTNRPSGVPERFSGSKSGTSASLAITGLQAEDEADYYCQSYDHSLNWVFGGGTKLTVL
B10: C086 (antibody, V domains shown)
VH: B9 VH with M29I, S31T, T35A, K43R, Y50S, Y52F, N58Y, I71V, S83N, T115S
VL: B9 VL with S26I, D34E, Q39V, G66A, S96R, N98H

What follows are binders tested against SARS-CoV-2 spike receptor binding domain (RBD), wild type (SARS-CoV-2, UniProt P0DTC2 319-539) (assay: ELISA, RBD protein coated, mAb titrated).
In the case of B1, the EC50 is reported as 21 ng/mL.
With B2 the EC50 was 4.36 ng/mL.

What follows are binders tested against SARS-CoV-2 receptor binding domain (RBD), wild type (SARS-CoV-2, UniProt P0DTC2 319-539) (assay: ELISA, RBD protein coated, mAb titrated).
B3 was tested, and the EC50 was 1.88 ng/mL.
For B4, the EC50 was 2.31 ng/mL.
Binder B5 has an EC50 of 43.5 ng/mL.
B6 was tested, and the EC50 was 4.69 ng/mL.
Work on B7 yielded an EC50 of 6.22 ng/mL.
Work on B8 yielded an EC50 of 4.69 ng/mL.
Work on B9 yielded an EC50 of 2.38 ng/mL.
With B10 the EC50 was 3.01 ng/mL.
